Data: IntAct's records for PubMed 24879834

B1: TBC1 domain family member 1 (Homo sapiens), Q86TI0 (parent)
chain: MEPITFTARKHLLSNEVSVDFGLQLVGSLPVHSLTTMPMLPWVVAEVRRLSRQSTRKEPVTKQVRLCVSPSGLRCEPEPGRSQQWDPLIYSSIFECKPQRVHKLIHNSHDPSYFACLIKEDAVHRQSICYVFKADDQTKVPEIISSIRQAGKIARQEELHCPSEFDDTFSKKFEVLFCGRVTVAHKKAPPALIDECIEKFNHVSGSRGSESPRPNPPHAAPTGSQEPVRRPMRKSFSQPGLRSLAFRKELQDGGLRSSGFFSSFEESDIENHLISGHNIVQPTDIEENRTMLFTIGQSEVYLISPDTKKIALEKNFKEISFCSQGIRHVDHFGFICRESSGGGGFHFVCYVFQCTNEALVDEIMMTLKQAFTVAAVQQTAKAPAQLCEGCPLQSLHKLCERIEGMNSSKTKLELQKHLTTLTNQEQATIFEEVQKLRPRNEQRENELIISFLRCLYEEKQKEHIHIGEMKQTSQMAAENIGSELPPSATRFRLDMLKNKAKRSLTESLESILSRGNKARGLQEHSISVDLDSSLSSTLSNTSKEPSVCEKEALPISESSFKLLGSSEDLSSDSESHLPEEPAPLSPQQAFRRRANTLSHFPIECQEPPQPARGSPGVSQRKLMRYHSVSTETPHERKDFESKANHLGDSGGTPVKTRRHSWRQQIFLRVATPQKACDSSSRYEDYSELGELPPRSPLEPVCEDGPFGPPPEEKKRTSRELRELWQKAILQQILLLRMEKENQKLQASENDLLNKRLKLDYEEITPCLKEVTTVWEKMLSTPGRSKIKFDMEKMHSAVGQGVPRHHRGEIWKFLAEQFHLKHQFPSKQQPKDVPYKELLKQLTSQQHAILIDLGRTFPTHPYFSAQLGAGQLSLYNILKAYSLLDQEVGYCQGLSFVAGILLLHMSEEEAFKMLKFLMFDMGLRKQYRPDMIILQIQMYQLSRLLHDYHRDLYNHLEEHEIGPSLYAAPWFLTMFASQFPLGFVARVFDMIFLQGTEVIFKVALSLLGSHKPLILQHENLETIVDFIKSTLPNLGLVQMEKTINQVFEMDIAKQLQAYEVEYHVLQEELIDSSPLSDNQRMDKLEKTNSSLRKQNLDLLEQLQVANGRIQSLEATIEKLLSSESKLKQAMLTLELERSALLQTVEELRRRSAEPSDREPECTQPEPTGD
partner: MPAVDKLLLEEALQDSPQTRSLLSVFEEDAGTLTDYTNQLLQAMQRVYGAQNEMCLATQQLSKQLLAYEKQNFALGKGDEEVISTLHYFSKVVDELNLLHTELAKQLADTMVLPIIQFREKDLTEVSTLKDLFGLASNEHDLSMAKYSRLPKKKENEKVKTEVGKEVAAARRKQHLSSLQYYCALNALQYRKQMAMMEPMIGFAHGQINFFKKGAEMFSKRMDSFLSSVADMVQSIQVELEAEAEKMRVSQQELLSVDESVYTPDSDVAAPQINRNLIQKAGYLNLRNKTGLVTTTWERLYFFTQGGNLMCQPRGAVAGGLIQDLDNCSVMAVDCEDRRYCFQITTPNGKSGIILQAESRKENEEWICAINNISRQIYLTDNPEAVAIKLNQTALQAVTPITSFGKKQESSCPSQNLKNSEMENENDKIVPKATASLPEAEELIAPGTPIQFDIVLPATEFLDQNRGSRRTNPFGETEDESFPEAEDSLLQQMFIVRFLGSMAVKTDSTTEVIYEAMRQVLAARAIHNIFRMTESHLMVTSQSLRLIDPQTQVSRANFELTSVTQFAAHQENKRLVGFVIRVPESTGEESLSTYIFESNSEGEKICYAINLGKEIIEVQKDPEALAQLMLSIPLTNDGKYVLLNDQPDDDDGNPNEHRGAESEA

Variants of: B1
Details: with dp13b_human APPL2, Q8NEU8

effect of a mutation on the interaction	Variant
with no effect	S237A
disrupting interaction strength	S235A
